Data set [1] relates to COc1cc(C=NN=Cc2cc(OC)c(O)c(OC)c2)cc(OC)c1O. Put plainly: purified protein. The settings on record: 50 mM sodium acetate pH 5.5, 25 °C.
A further data set deals with O=C(O)c1cc(O)c(O)c(O)c1. The data set can be described thus: purified protein. The settings on record: 50 mM sodium acetate pH 5.5, 25 °C.
The test system of a further data set is COc1cc(C(=O)O)cc(OC)c1O. Put plainly: purified protein. The settings on record: 50 mM sodium acetate pH 5.5, 25 °C.
The test system of data set [2] is O=c1c(O)c(-c2ccc(O)c(O)c2)oc2cc(O)cc(O)c12. Put plainly: purified protein. The settings on record: 50 mM sodium acetate pH 5.5, 25 °C.
Another data set relates to Oc1ccccc1O. Put plainly: purified protein. The conditions noted are these: 50 mM sodium acetate pH 5.5, 25 °C.
The subject of data set [3] is O=c1c(O)c(-c2ccc(O)cc2)oc2cc(O)cc(O)c12. Put plainly: purified protein. The conditions noted are these: 50 mM sodium acetate pH 5.5, 25 °C.
For data set [4], the system named is O=C(O)/C=C/c1ccc(O)c(O)c1. The data set can be described thus: purified protein. The conditions noted are these: 50 mM sodium acetate pH 5.5, 25 °C.
Data set [5] deals with O=c1c(O)c(-c2ccc(O)c(O)c2)oc2cc(O)ccc12. The data set can be described thus: purified protein. The conditions noted are these: 50 mM sodium acetate pH 5.5, 25 °C.
A further data set has as its system Oc1ccc(O)cc1. The data set can be described thus: purified protein. The settings on record: 50 mM sodium acetate pH 5.5, 25 °C.
For data set [6], the system named is CN(C)CCCN1c2ccccc2Sc2ccccc21. Put plainly: purified protein. The settings on record: 50 mM sodium acetate pH 5.5, 25 °C.
Data set [7] relates to CCn1c(=NN=c2sc3cc(S(=O)(=O)O)ccc3n2CC)sc2cc(S(=O)(=O)O)ccc21. Put plainly: purified protein. The settings on record: 50 mM sodium acetate pH 5.5, 25 °C.
The test system of another data set is Nc1ccc(N)cc1. The data set can be described thus: purified protein. The conditions noted are these: 50 mM sodium acetate pH 5.5, 25 °C.
In data set [8] the test system is O=C(O)CCN1c2ccccc2Oc2ccccc21. The data set can be described thus: purified protein. The conditions noted are these: 50 mM sodium acetate pH 5.5, 25 °C.
The test system of a further data set is OCCN1c2ccccc2Oc2ccccc21. The data set can be described thus: purified protein. The conditions noted are these: 50 mM sodium acetate pH 5.5, 25 °C.
Data set [9] deals with COc1cc(/C=C/C(=O)O)cc(OC)c1O. The data set can be described thus: purified protein. The settings on record: 50 mM sodium acetate pH 5.5, 25 °C.
The target in data set [10] is yellow laccase Bcl1 from Botrytis cinerea strain 241 (Botrytis cinerea strain 241). The data set can be described thus: SEC; Superdex 200 5/150 GL analytical column, 50 mM Tris-HCl, 150 mM NaCl, pH 8; mass read against standards (apoferritin, beta-amylase, alcohol dehydrogenase, albumin) and compared with the mass by SDS-PAGE. A general note: SEC sorts molecules by how far they enter the pores of the column.

Here are results for two substances from publication PMC7922139, “Characterization of a Yellow Laccase from Botrytis cinerea 241” (Journal of Fungi, 2021).

As to Bcl1 laccase (Botrytis cinerea), the Michaelis-Menten constant (Km) in data set [1] worked out at 0.7 ± 0.1 µM; in the data set on O=C(O)c1cc(O)c(O)c(O)c1, 27.0 ± 8 µM; with COc1cc(C(=O)O)cc(OC)c1O, 74.0 ± 12 µM; in data set [2] it was 3.7 ± 0.8 µM; with Oc1ccccc1O it was 70.0 ± 4 µM; in [3], 8.6 ± 0.1 µM. Further, the Km in data set [4] amounted to 15.0 ± 1 µM; in data set [5], 1.5 ± 0.1 µM; in data set [6], 60.0 ± 10 µM; in data set [7], 13.8 ± 0.2 µM; in the data set with Nc1ccc(N)cc1, 150.0 ± 20 µM; in [8], 6.0 ± 0.8 µM. Further, the Km stood at 40.0 ± 7 µM in the data set with OCCN1c2ccccc2Oc2ccccc21 and 60.0 ± 10 µM in data set [9]. The kcat in [1] worked out at 30 ± 2 s⁻¹; with O=C(O)c1cc(O)c(O)c(O)c1 it was 20 ± 3 s⁻¹; with COc1cc(C(=O)O)cc(OC)c1O, 3.4 ± 0.5 s⁻¹; in data set [2], 6.7 ± 0.4 s⁻¹; with Oc1ccccc1O, 28 ± 1 s⁻¹; in [4], 13 ± 1 s⁻¹. Further, the kcat turned out to be 7.8 ± 0.3 s⁻¹ in data set [5]; 21.4 ± 0.3 s⁻¹ in the data set with Oc1ccc(O)cc1; 7.1 ± 0.3 s⁻¹ in data set [6]; 29 ± 1 s⁻¹ in [7]; 15 ± 1 s⁻¹ with Nc1ccc(N)cc1; 33 ± 1 s⁻¹ in data set [8]. The kcat with OCCN1c2ccccc2Oc2ccccc21 amounted to 25 ± 2 s⁻¹; in [9], 100 ± 10 s⁻¹. The kcat/Km turned out to be 4.3e+07 ± 7e+06 M⁻¹ s⁻¹ in data set [1]; 740000 ± 200000 M⁻¹ s⁻¹ with O=C(O)c1cc(O)c(O)c(O)c1; 46000 ± 5000 M⁻¹ s⁻¹ with COc1cc(C(=O)O)cc(OC)c1O; 1.8e+06 ± 300000 M⁻¹ s⁻¹ in data set [2]; 400000 ± 20000 M⁻¹ s⁻¹ in the data set with Oc1ccccc1O; 2e+06 ± 400000 M⁻¹ s⁻¹ in [3]. The specificity constant (kcat/Km) is 870000 ± 200000 M⁻¹ s⁻¹ in data set [4]; 5.2e+06 ± 900000 M⁻¹ s⁻¹ in [5]; 97000 ± 2000 M⁻¹ s⁻¹ in the data set with Oc1ccc(O)cc1; 2.1e+06 ± 100000 M⁻¹ s⁻¹ in [7]; 100000 ± 2000 M⁻¹ s⁻¹ with Nc1ccc(N)cc1; 5.5e+06 ± 800000 M⁻¹ s⁻¹ in data set [8]. For the same substance, in the data set with OCCN1c2ccccc2Oc2ccccc21, the kcat/Km came out at 630000 ± 30000 M⁻¹ s⁻¹.

“yellow laccase Bcl1 from Botrytis cinerea strain 241 (enzyme)” gave a stoichiometry N in data set [10] of 2.

Usually Km stands for the concentration of substrate that gives half-maximal velocity. In general, kcat refers to the maximal rate divided by the concentration of active sites. The term kcat/Km denotes the turnover number divided by the Michaelis constant. A word on the stoichiometry N: it is the number of molecules, sites or subunits per partner or assembly.
